This passage reports Kd results from paper PMC10617567.

This series concerns AIM2 (recombinant AIM2FL). As to the kind of experiment: EMSA. Particulars: 3' biotin; EMSA: 0.1 uM biotinylated 149 bp dsDNA, protein up to 2.5 ug (twofold dilutions), 4 C, 30 min, 5% native PAGE in 45 mM Tris-borate/1 mM EDTA; pull-down: 1 ug ….

With 149 bp HBV dsDNA, the Kd came to 1.38.
